According to US20170281723A1 (OHIO STATE INNOVATION FOUNDATION, published 2017):
Blank lines part the entries; values can stand above or below the molecule they belong to. Starred links: 1 amine or outer side, 2 acyl side, 3 side chain; linkers in the order of their positions; H or OH if unused. Non-standard residues stand in square brackets, D forms with d. *: point of attachment. Cys(ΨMe,MePro) = 2,2-dimethyl-L-thiazolidine-4-carboxylic acid, cis-proline analog, CC1(C)SC[C@@H](C(=O)[*:2])N1[*:1]; F∗ = N-terminal 5(6)-SFX fluorescein label; Tle = CC(C)(C)[C@H](N)C(=O)O; NHPr = CCCN*

Assays:
[1] = target: Calcineurin (CN), purified as glutathione S-transferase fusion protein from Escherichia coli BL21 cells (UniProt Q08209); experiment: FA competition, competitor FITC-ZIZIT (100 nM), CN 150 nM
[2] = target: Calcineurin (CN), purified as glutathione S-transferase fusion protein from Escherichia coli BL21 cells (UniProt Q08209); experiment: fluorescence anisotropy, ratio of KD values against VIVIT
[3] = target: Calcineurin (CN), purified as glutathione S-transferase fusion protein from Escherichia coli BL21 cells (UniProt Q08209); experiment: fluorescence anisotropy, N-terminal 5(6)-SFX labeled peptide (100 nM) titrated with CN
[4] = target: Calcineurin (CN), purified as glutathione S-transferase fusion protein from Escherichia coli BL21 cells (UniProt Q08209); experiment: in vitro binding to CN, against ZIZIT
[5] = target: Calcineurin (CN), purified as glutathione S-transferase fusion protein from Escherichia coli BL21 cells (UniProt Q08209); experiment: fluorescence anisotropy, ratio of KD values against ZIZIT
[6] = target: bovine serum albumin (BSA) (bovine, UniProt P02769 25-607); experiment: fluorescence anisotropy, FITC-labeled ZIZIT-cisPro 100 nM
Grb2 SH2 domain = target: T1, Grb2 SH2 domain (UniProt P62993 60-152, limits assumed); experiment: as above
T1 construct: domain: SH2 domain; also called SH2 domain of Grb2

[7] = target: protein-tyrosine phosphatase SHP1 (UniProt P29350); experiment: as above

Chain of bovine serum albumin (BSA) (P02769 25-607 limits assumed): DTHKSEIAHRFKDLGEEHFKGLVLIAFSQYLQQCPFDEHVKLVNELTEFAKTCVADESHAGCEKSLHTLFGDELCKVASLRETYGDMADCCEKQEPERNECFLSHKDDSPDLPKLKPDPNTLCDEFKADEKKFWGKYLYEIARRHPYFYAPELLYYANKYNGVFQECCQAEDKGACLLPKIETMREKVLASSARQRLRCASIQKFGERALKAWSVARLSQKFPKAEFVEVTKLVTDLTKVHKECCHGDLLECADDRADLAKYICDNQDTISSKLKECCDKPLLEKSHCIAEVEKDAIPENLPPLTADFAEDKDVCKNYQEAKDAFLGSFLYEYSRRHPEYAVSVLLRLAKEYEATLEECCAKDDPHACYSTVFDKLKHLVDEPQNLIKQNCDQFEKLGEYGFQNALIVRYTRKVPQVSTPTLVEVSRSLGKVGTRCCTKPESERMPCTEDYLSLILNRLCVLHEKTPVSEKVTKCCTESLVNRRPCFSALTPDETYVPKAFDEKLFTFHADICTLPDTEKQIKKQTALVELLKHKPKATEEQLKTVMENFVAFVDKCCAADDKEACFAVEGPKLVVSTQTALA
T1 sequence (P62993 60-152 limits assumed): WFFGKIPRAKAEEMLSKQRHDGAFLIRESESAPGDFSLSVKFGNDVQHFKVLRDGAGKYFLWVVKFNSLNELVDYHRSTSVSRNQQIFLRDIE

Molecule: unlabeled ZIZIT-cisPro peptide (GPHPZIZITG-Cys(Ψ^Me,MePro)-HEE)
IC50 [1]: 110 nM

Molecule: {F∗}-GPHP[Tle]I[Tle]ITG[Cys(ΨMe,MePro)]HEEG-NHPr (also called FITC-labeled ZIZIT-cisPro) [F*-GPHPZIZITG-Cys(Ψ^Me,MePro)-HEEG-Propyl (F*-ZIZIT-cis), fluorescein-labeled ZIZIT-cisPro]
fold more active than ZIZIT for binding [4]: 15 fold
fold improvement of binding affinity over VIVIT [2]: 200 fold
fold increase of binding affinity over ZIZIT [5]: 20 fold
binding result [6]: no binding (tested: 15 µM)
binding result (Grb2 SH2 domain): no binding (tested: 15 µM)
Kd [3]: 2.6 nM
Kd [7]: > 15000 nM

Molecule: {F∗}-GPHAVAVAAGPHEE-NH2 [F*-…-NH2 (F*-VAVAA), fluorescein-labeled negative control peptide]
Kd [3]: > 20000 nM

Results, then the molecule that gave them:

IC50 [1]: 280 nM
Molecule: unlabeled ZIZIT peptide (GPHPZIZITGPHEE, Z = tert-leucine)

fold higher affinity than VIVIT [2]: 10 fold
Kd [3]: 43 nM
Molecule: Fluorescein-labeled ZIZIT peptide (GPHPZIZITGPHEE, Z = tert-leucine)
